From patent publication US20160200799A1

B1: Group 39 representative clone F082-237, Fab-cp3-type antibody (Fab, V domains shown)
VH: QVQLVQSGAEVKKPGSSVKVSCKASGGIFNKYGISWVRQAPGQGLEWMGGILAIFGTTNYAQKFQGRVTISADESSTTVYMELSSLTSEDTAVYYCARGNTYYSSYFDQWGQGTLVTVSS
VL: QSVLTQPPSVSVAPGQTATITCGGDKIGTGPVHWYQQMPGRAPVLLIYASTHRPSRIPERFSGSKSDNTATLSISGVGVGDEADYYCQMWDSSSVHPIVFGGGTKLTVLS
B2: Group 54 representative clone F083-354, Fab-cp3-type antibody (Fab, V domains shown)
VH: QVQLVQSGSEVKKPGSSVKVSCKASGGIFNSYGISWVRQAPGQGLEWMGGILAIFGTTNYAQKFQGRVTITADDSSKTVYMELSSLTSEDTAVYYCARGSTYYSSYFDQWGQGTLVTVSS
VL: DIQMTQSPSSLSASVGDRVTITCRASQGIRNSLAWYQQKPGQVPKLLIYSATTLRSGVPYRFSGSGSGTDFTLTISGLQPEDVGTYFCHRYDSAPLTFGGGTRVALK
B3: Group 48 representative clone F083-389, Fab-cp3-type antibody (Fab, V domains shown)
VH: QVQLVQSGAEVKKPGSSVKVSCKASGDIFNKFAITWVRQAPGQGLEWMGGITALFATTSYAQKFQDRVTINWDESTTTAFMELSSLRFEDTAVYYCARGPNYYETYLDNWGQGTLVTVSS
VL: EIVLTQSPTILSASVGDRVTITCRASQSISKWLAWYQQKPGKVPKLLIYMASTLESGVPSRFSGSGSGSEFTLTISSLQPGDFATYYCQQYNSYPRTFGQGTKVEINV
B4: Group 3 representative clone F081-281, Fab-cp3-type antibody (Fab, V domains shown)
VH: QVQLVQSGSEVKKPGSSVKVSCSFKASGGIISKYAITWVRQAPGQGLEWMGGIIAIFGSTNYAQKFQGRLTITSDESTSTAYMELSSLTSEDTAVYYCGRGPHYYESHLDYWGQGTLVTVSS
VL: EIVLTQSPGTLSLSPGERATLSCRASQGMSSSFLAWYQQKPGQPPRLLISGASTRATGIPDRFSGSGSGTDFTLTINRLEPEDFAVYYCQQYGSSPRTFGQGTKVEIK
B5: Group 65 representative clone F083-366, Fab-cp3-type antibody (Fab, V domains shown)
VH: QVQLVQSGSEVKKPGSSVKVSCKASRGIFSSYAISWVRQAPGQGLEWMGAVIPMFGTLKYAENFQGRITISADKSMSAAYMELSSLRSEDTAVYYCARNYYGSGTYFNDAFDIWGQGTMVTVSS
VL: QSVLTQPPSGSGAPGQRVTISCTGGNSNIGAGYDVNGYQQLPGKAPKLLIYGNNNRPSGVPDRFSGSKSGTSASLAITGLQVEDEAHYYCQSYDNGLSGSVFGGGTQLTVLG
B6: Group 1 representative clone F080-227, Fab-cp3-type antibody (Fab, V domains shown)
VH: QVQLQESGAEVKKPGSSVKVSCKASGGIFRRNAISWVRQAPGQGLEWMGGIIAIFGTANYAQKFQGRVTITADESTSTVYMELSSLRPEDTAVYYCARGPNYYENFFDYWGQGTLVTVSS
VL: DIVMTQSPSSLSASVGDRLDLTCRASQDIANSLAWYKQRPGKAPELLVFGASRLEGGVPSRFSGTRAGTDFTLTISSLQPEDLGTYFCQQYFSFPRTFGQGTTLDLR
B7: Group 36 representative clone F082-243, Fab-cp3-type antibody (Fab, V domains shown)
VH: QVQLQQSGAEVKKPGSSVKVSCKASGGIFRKNAISWVRQAPGQGLEWMGGIIAIFGTANYAQKFQGRVTITADDSTNTVYMELTSLRYEDTAVYYCARGPNYYENYFDFWGQGTLVTVSS
VL: EIVLTQSPSSLSASLRDTVTITCRTSQAITNYLAWYQQRPGKAPKLLIYAASVLQSGVPSRFSGSGSGTDFTLTISSLQPEDFATYYCQKYDSAPYTFGQGTKLEIK
B8: Group 2 representative clone F082-220, Fab-cp3-type antibody (Fab, V domains shown)
VH: QVQLVQSGAEVKKPGSSVKVSCKASGGIFRSNAVSWVRQAPGQGLEWMGGIIAIFGTPKYAQKFQGRVTITADESTSTVYMELSGLRYEDTAVYYCARGPNYYESYFDYWGQGTLVTVSS
VL: DIVMTQSPPSLSASVGDRVTITCRASQGISNYLAWYQQKPGKAPKLLIFGASTLHSGVSSRFSGSGSGPDFTLTISSLQPEDAATYYCQKYHSAPLTFGGGTKVEMK
B9: Group 47 representative clone F083-308, Fab-cp3-type antibody (Fab, V domains shown)
VH: QVQLVQSGAEVKKPGSSVKVSCKASGGIFRSHAISWVRQAPGQGLEWMGGIIAIFGTTHYAQQFQGRVTITADESTSTVYMELSTLRSEDTAVYYCARGPNYFESYFDNWGQGTLVTVSS
VL: EIVLTQSPATLSLSPGERATLSCRASQTISSYLAWYQQKPGQAPRLLIYGASNRATGIPARFSGSGSGTDFTLTINSLEPEDFAVYYCQQRSSWPPITFGQGTRLEIK
B10: Group 37 representative clone F083-311, Fab-cp3-type antibody (Fab, V domains shown)
VH: QVQLVQSGSEVKKPGSSVKVSCKASGGIFRTNAISYVRQAPGQGLEWMGGITAIFGTPNYAQKFQGRVTIIADESTSTVYMELGSLTSEDTAVYYCATSGTYYVSYFDSWGQGTLVTVSS
VL: DIVMTQSPGTLTLSPGERATLSCRASQSLYSSHLAWYQQKPGQPPRLLIYGASTRAPGTPDRFSGSGSGTDFTLTITALDPEDSAVYYCQQYGSSPITFGQGTRLEIK
B11: Group 35 representative clone F082-117, Fab-cp3-type antibody (Fab, V domains shown)
VH: QVQLVQSGSEVKKPGSSVKVSCKSSGGILRRSAISWVRQAPGQGLEWMGGILAIFGTTKYAQKFQGRITITADESTNTVHMELSSLRPDDTAVYYCAGGPHYYVSYFDSWGQGTLVTVSS
VL: DIQMTQSPATLSLSPGERATLSCRASQSVRSYLAWYQQKPGQAPRLLIYDASNRATGIPARFSGSGSGTEFTLTISRLEPEDFAVYYCQQRSNWLFTFGPGTKVDFK
B12: Group 44 representative clone F081-008, Fab-cp3-type antibody (Fab, V domains shown)
VH: QVQLVQSGAEVKKPGSSVKVSCKASGGTFSSFSTYTISWVRQAPGQGLEWMGRSIPLLGITNYAQKFQGRVTITADISTSTAYMELSSLRSEDTAVYYCARYQSSDYYNSEYFQHWGQGTLVTVSS
VL: EIVLTQSPGTLSLSLGERVTLSCRASQNVGTNYLAWYQQKPGQAPRLLIYGASSRATGVPDRFSGSGSGTDFTLTISRLAPEDFAVYYCQQYSSSPLTFGGGTKLEIK

Assays:
Assay in all cases: ELISA on coated viral particles
[1] = target: Influenza virus A/Brisbane/59/2007 (H1N1) (Influenza A virus A/Brisbane/59/2007 (H1N1))
[2] = target: Influenza virus A/California/7/2009pdm (H1N1pdm) (Influenza A virus A/California/7/2009pdm (H1N1pdm))
[3] = target: Influenza virus A/New Caledonia/20/1999 (H1N1) (Influenza A virus A/New Caledonia/20/1999 (H1N1))
[4] = target: Influenza virus A/Panama/2007/1999 (H3N2) (Influenza A virus A/Panama/2007/1999 (H3N2))

| Binder | Binding activity (absorbance at 492 nm) [1] | Binding activity (absorbance at 492 nm) [2] | Binding activity (absorbance at 492 nm) [3] | Binding activity (absorbance at 492 nm) [4] |
| --- | --- | --- | --- | --- |
| B1 | 1.95 | 2.62 | 1.94 | 0.13 |
| B2 | 3.01 | 2.54 | 3.05 | 0.16 |
| B3 | 2.83 | 2.49 | 2.72 | 0.14 |
| B4 | 2.98 | 2.87 | 2.86 | 0.18 |
| B5 | 2.84 | 1.13 | 2.93 | 0.18 |
| B6 | 3.1 | 2.95 | 3.15 | 0.14 |
| B7 | 1.05 | 0.8 | 0.96 | 0.13 |
| B8 | 3.15 | 2.72 | 3.37 | 0.16 |
| B9 | 1.82 | 1.21 | 1.79 | 0.16 |
| B10 | 2.64 | 1.82 | 2.59 | 0.15 |
| B11 | 3.26 | 3.11 | 3.35 | 0.15 |
| B12 | 2.89 | 0.43 | 3.25 | 0.17 |
